The target in one experiment is GST-TLX ΔC341-385 (mouse, UniProt Q64104 1-340). In words: pull-down.
In another experiment the target is GST-TLX ΔN (Δ1-187) (mouse, UniProt Q64104 188-385). In words: pull-down.

The text below walks through data of publication PMC3509445 (Biology Open, 2012).

Sequence of GST-TLX ΔC341-385 (Q64104 1-340, stated change not applied): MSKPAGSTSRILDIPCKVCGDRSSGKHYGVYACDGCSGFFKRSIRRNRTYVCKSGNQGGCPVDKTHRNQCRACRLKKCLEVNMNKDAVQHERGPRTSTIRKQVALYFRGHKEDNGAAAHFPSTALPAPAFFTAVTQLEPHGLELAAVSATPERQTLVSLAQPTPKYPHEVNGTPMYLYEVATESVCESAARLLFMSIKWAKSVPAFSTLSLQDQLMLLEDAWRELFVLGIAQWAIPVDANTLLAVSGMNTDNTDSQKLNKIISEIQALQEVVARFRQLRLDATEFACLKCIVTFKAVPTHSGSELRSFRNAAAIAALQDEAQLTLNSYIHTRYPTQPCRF
Sequence of GST-TLX ΔN (Δ1-187) (Q64104 188-385, stated change not applied): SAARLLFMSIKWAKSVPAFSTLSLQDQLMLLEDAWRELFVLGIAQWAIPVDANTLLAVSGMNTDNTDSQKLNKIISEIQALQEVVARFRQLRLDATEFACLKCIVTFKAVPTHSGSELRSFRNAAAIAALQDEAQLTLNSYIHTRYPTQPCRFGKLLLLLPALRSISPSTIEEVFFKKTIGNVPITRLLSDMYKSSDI

B1: ThioHis-VHL30Δ95-123 (natural protein, UniProt P40337-1 1-213, looked up)
chain: MPRRAENWDEAEVGAEEAGVEEYGPEEDGGEESGAEESGPEESGPEELGAEEEMEAGRPRPVLRSVNSREPSQVIFCNRSPRVVLPVWLNFDGETHDGLLVNQTELFVPSLNVDGQPIFANITLPVYTLKERCLQVVRSLVKPENYRRLDIVRSLYEDLEDHPNVQKDLERLTQERIAHQRMGD
On to B1, for which the binding result with GST-TLX ΔC341-385 and with GST-TLX ΔN (Δ1-187) was “binds” each time.
